In publication PMC6424611 (Journal of molecular biology, 2019):
Where no end group is shown, it is not given here. [ ]: non-standard residue; d: D form. The star is where a group is joined. Biotin = O=C1N[C@H]2[C@H](CS[C@H]2CCCCC(=O)*)N1; TTDS = NCCCOCCOCCOCCCNC(=O)CCC(=O)*; pS = N[C@@H](COP(=O)(O)O)C(=O)O

T1: MBP-fused PDZ domain of MAST1 (human, UniProt Q9Y2H9 967-1055)
T1 sequence (looked up): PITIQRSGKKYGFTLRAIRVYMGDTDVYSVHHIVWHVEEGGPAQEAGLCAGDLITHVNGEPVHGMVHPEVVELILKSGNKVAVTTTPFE

T2: MBP-fused PDZ domain of SNTG2 (human, UniProt Q9NY99 73-156)
T2 sequence (looked up): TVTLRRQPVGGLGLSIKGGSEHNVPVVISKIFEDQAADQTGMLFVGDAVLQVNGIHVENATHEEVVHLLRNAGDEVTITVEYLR

T3: MBP-fused PDZ domain of SNTB1 (human, UniProt Q13884 112-195)
T3 sequence (looked up): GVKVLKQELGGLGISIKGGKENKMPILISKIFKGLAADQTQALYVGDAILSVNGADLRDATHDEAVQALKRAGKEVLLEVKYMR

T4: MBP-fused PDZ domain 3 of PDZD7 (human, UniProt Q9H5P4 862-934)
T4 sequence (looked up): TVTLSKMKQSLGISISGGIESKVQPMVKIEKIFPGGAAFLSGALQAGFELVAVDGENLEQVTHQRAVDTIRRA

T5: MBP-fused PDZ domain of MAST2 (human, UniProt Q6P0Q8 1104-1192)
T5 sequence (looked up): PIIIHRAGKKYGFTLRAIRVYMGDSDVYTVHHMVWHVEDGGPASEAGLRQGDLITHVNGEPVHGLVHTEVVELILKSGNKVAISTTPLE

B1: PDZ domain 2 of MAGI3 (domain or fragment, human, UniProt Q5TCQ9 410-492, looked up)
chain: RASLKKSTMGFGFTIIGGDRPDEFLQVKNVLKDGPAAQDGKIAPGDVIVDINGNCVLGHTHADVVQMFQLVPVNQYVNLTLCR
B2: MBP-fused PDZ domain 1 of PDZRN4 (domain or fragment, human, UniProt Q6ZMN7 224-314, looked up)
chain: TIVLERENDTLGFNIIGGRPNQNNQEGTSTEGIYVSKILENGPADRADGLEIHDKIMEVNGKDLSKATHEEAVEAFRNAKEPIVVQVLRRT
B3: biotinylated RSK1 725-735 peptide, unphosphorylated (peptide, UniProt Q15418 725-735, looked up)
peptide: {Biotin-TTDS}-RRVRKLPSTTL
B4: MBP-fused PDZ domain 1 of PARD3B (domain or fragment, human, UniProt Q8TEW8 201-289, looked up)
chain: TRTVEISGEGGPLGIHVVPFFSSLSGRILGLFIRGIEDNSRSKREGLFHENECIVKINNVDLVDKTFAQAQDVFRQAMKSPSVLLHVLP
B5: biotinylated RSK1 725-735 peptide, phosphorylated at Ser732 (position -3) (peptide, UniProt Q15418 725-735, looked up)
peptide: {Biotin-TTDS}-RRVRKLP[pS]TTL

Tests used:
[1] = biological target: B3; assay: holdup assay
[2] = biological target: B5; assay: holdup assay
[3] = biological target: T1, MBP-fused PDZ domain of MAST1; assay: fluorescence polarisation
[4] = biological target: T2, MBP-fused PDZ domain of SNTG2; assay: fluorescence polarisation
[5] = biological target: MBP-fused PDZ domain of HTRA1 (human, UniProt Q92743 365-467); assay: fluorescence polarisation
[6] = biological target: T3, MBP-fused PDZ domain of SNTB1; assay: fluorescence polarisation
[7] = biological target: T4, MBP-fused PDZ domain 3 of PDZD7; assay: fluorescence polarisation
[8] = biological target: MBP-fused PDZ domain 2 of GRID2IP (human, UniProt A4D2P6 279-356); assay: fluorescence polarisation
[9] = biological target: MBP-fused PDZ domain of SNX27 (human, UniProt Q96L92 43-136); assay: fluorescence polarisation
[10] = biological target: T5, MBP-fused PDZ domain of MAST2; assay: fluorescence polarisation
[11] = biological target: B4; assay: fluorescence polarisation
[12] = biological target: B2; assay: SPR
[13] = biological target: B4; assay: SPR
[14] = biological target: B2; assay: holdup assay
[15] = biological target: B1; assay: holdup assay
[16] = biological target: B4; assay: holdup assay

Sequence of MBP-fused PDZ domain of HTRA1 (Q92743 365-467): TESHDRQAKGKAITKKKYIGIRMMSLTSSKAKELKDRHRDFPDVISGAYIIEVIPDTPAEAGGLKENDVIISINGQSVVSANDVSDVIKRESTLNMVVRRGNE
Sequence of MBP-fused PDZ domain 2 of GRID2IP (A4D2P6 279-356): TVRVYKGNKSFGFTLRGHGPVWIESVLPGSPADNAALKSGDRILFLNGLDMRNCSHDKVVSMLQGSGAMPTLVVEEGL

BI [1] | BI [2] | Kd [12] | Kd [13] | Kd [14] | Kd [15] | Kd [16] | Binder | also measured
0.28 ± 0.03 | 0.28 ± 0.06 |  |  |  |  |  | B1 | 
 |  |  |  |  |  |  | RSK1 683-735 peptide, phosphorylated (peptide, UniProt Q15418 683-735, looked up, also: monophosphorylated, site not given here) peptide: QSQLSHQDLQLVKGAMAATYSALNSSKPTPQLKPIESSILAQRRVRKLPSTTL | Kd [3]: 92 ± 12 µM; Kd [4]: 4.8 ± 1.7 µM; Kd [5]: 33 ± 2 µM; Kd [6]: 4.5 ± 0.3 µM; Kd [7]: 46 ± 7 µM; Kd [8]: 85 ± 11 µM; Kd [9]: 32 ± 5 µM; Kd [10]: 48 ± 84 µM; Kd [11]: 31 ± 3.5 µM
0.51 ± 0.02 | 0.54 ± 0.03 |  |  |  |  |  | B2 | 
 |  | 0.97 ± 0.18 µM | 4 ± 0.3 µM | 14.4 µM | 40.8 µM | 13.8 µM | B3 | 
0.52 ± 0.05 | 0.31 ± 0.02 |  |  |  |  |  | B4 | 
 |  | 7.1 ± 0.9 µM | 6.1 ± 0.4 µM | 12.6 µM | 40.8 µM | 35.1 µM | B5 | 
